According to publication PMC8514580, “Insight into the interaction between the RNA helicase CGH-1 and EDC-3 and its implications” (Scientific Reports, 2021):
Entries after “also recorded” stand apart in the source; their conditions may differ.

Experiments:
[1] = biological target: CAR-1 184-214 (Caenorhabditis elegans) (UniProt Q9XW17); experiment: ITC; conditions: cited from earlier work
[2] = biological target: CGH-1_248-420^F355A (Caenorhabditis elegans, UniProt Q95YF3, F355A); parameters: the cDNA fragments encoding CGH-1 RecA2 (residues 248–420); made in house; host or cells: E. coli Gold (DE3); conditions: ITC, CGH-1 F355A vs WT; cited from earlier work
Chain of CGH-1_248-420^F355A (Q95YF3 248-420 F355A): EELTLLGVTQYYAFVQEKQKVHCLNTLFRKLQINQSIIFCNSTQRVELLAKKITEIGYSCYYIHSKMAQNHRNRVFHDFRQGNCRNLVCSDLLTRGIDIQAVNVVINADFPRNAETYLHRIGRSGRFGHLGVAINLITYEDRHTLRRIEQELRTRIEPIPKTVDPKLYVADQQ
Source text: We recently identified a highly conserved FDF (Phe-Asp-Phe) motif between beta-strand 12 and alpha-helix 13 in CGH-1 RecA2 domain but the function is currently unclear (Fig. 1B)[17]. Mechanistically, Phe355 in CGH-1 may mediate hydrophobic interaction with Thr266 in the TFG motif of CAR-1 and a mutation of Phe355 to Ala (F355A) in CGH-1 decreased the binding affinity by a factor of approximate 5 as measured by ITC assay. Since PATR-1N-terminus has also a TFG motif, we hypothesize that PATR-1 may also interact with CGH-1 via similar binding mechanism (Supplementary Fig. S3B and C). Striking ...

[3] = test system: human HA-tagged DDX6; conditions: Co-immunoprecipitation, YFP-tagged PATL1 mutants; cited from earlier work
[4] = test system: CGH-1_248–420; experiment: GST-pulldown of CGH-1_248–420 WT; assay type: binding, C. elegans; conditions: PBS, ~100 μg GST protein, ~50 μg CGH-1, 2 h, 12% SDS-PAGE
Experimental: (§1) The cDNA encoding a fragment of C. elegans EDC-3 (residues 230–566) plus a C-terminal His6 tag was synthesized by Sangon Biotech (Shanghai, China) Co., Ltd. The DNA fragment was then cloned into a pGEX-4T-1 expression vector using restriction enzymes BamHI and XhoI, and finally confirmed by DNA sequencing.
(§2) To test if GST-tagged EDC-3 can pulldown CGH-1 protein, about 100 μg protein, GST alone or GST-EDC-3_230–566, was incubated with GST resin (GE Healthcare) in PBS for 1 h. The resin was then washed three times with the same buffer. Subsequently, the resin was incubated with ~ 50 μg recombinant CGH-1_248–420 protein or its 4A mutant in the same buffer for 2 h. The resin was then washed five times using the same buffer. The captured proteins in resin were finally heated and analyzed using 12% SDS-PAGE.

[5] = test system: 4A mutant of CGH-1_248–420; experiment: GST-pulldown of CGH-1_248–420 4A mutant; assay type: binding, C. elegans; conditions: PBS, ~100 μg GST protein, ~50 μg CGH-1 4A, 2 h, 12% SDS-PAGE
Experimental: as §1, §2

Molecule: CGH-1 248-420 (from UniProt Q95YF3)
- Kd [1]: 43 µM

B1: CAR-1: CAR-1, construct of ref 17; TFG motif interacts with Phe355 of CGH-1 (protein, UniProt Q9XW17 1-340, looked up)
Protein LSM14 homolog car-1: MSNQTPYIGSKISLISKLDIRYEGILYTVDTNDSTIALAKVRSFGTEKRPTANPVAARDDVYEYIIFKASDIKDLIVCDTPKMANIGGGLPYDPAIISVSSRSAPASDGAPAASAGSSRAGTPSRNSPLGQIIQNQRPGRGGYQQNFQANRGYNNYRGGFAGGYNNQRGHNNYGVPRVNHREKLKFESDFDFEKANEKFQEVLVDNLEKLNIEDKAEPEVEEKKDAAFYDKKTSFFDNISCESLEKAEGKTGRPDWKKERETNQETFGHNAVRSLNYRRGFGGRGRGGNRGYGGYNNGYQHQHQHRGGYNGGYRQNNGGYRRGGYAPRDNQGNTAAAAEQ
- decrease of binding affinity, factor vs WT [2]: ~5

B2: YFP-tagged PATL1 W46D: substitution of Trp46 to Asp in the YFP-tagged PATL1 (protein, UniProt Q86TB9 1-770, looked up, variant W46D)
Protein PAT1 homolog 1: MFRYESLEDCPLDEDEDAFQGLGEEDEEIDQFNDDTFGSGAVDDDDQEAHERLAELEEKLPVAVNEQTGNGERDEMDLLGDHEENLAERLSKMVIENELEDPAIMRAVQTRPVLQPQPGSLNSSIWDGSEVLRRIRGPLLAQEMPTVSVLEYALPQRPPQGPEDDRDLSERALPRRSTSPIIGSPPVRAVPIGTPPKQMAVPSFTQQILCPKPVHVRPPMPPRYPAPYGERMSPNQLCSVPNSSLLGHPFPPSVPPVLSPLQRAQLLGGAQLQPGRMSPSQFARVPGFVGSPLAAMNPKLLQGRVGQMLPPAPGFRAFFSAPPSATPPPQQHPPGPGPHLQNLRSQAPMFRPDTTHLHPQHRRLLHQRQQQNRSQHRNLNGAGDRGSHRSSHQDHLRKDPYANLMLQREKDWVSKIQMMQLQSTDPYLDDFYYQNYFEKLEKLSAAEEIQGDGPKKERTKLITPQVAKLEHAYKPVQFEGSLGKLTVSSVNNPRKMIDAVVTSRSEDDETKEKQVRDKRRKTLVIIEKTYSLLLDVEDYERRYLLSLEEERPALMDDRKHKICSMYDNLRGKLPGQERPSDDHFVQIMCIRKGKRMVARILPFLSTEQAADILMTTARNLPFLIKKDAQDEVLPCLLSPFSLLLYHLPSVSITSLLRQLMNLPQSAATPALSNPHLTAVLQNKFGLSLLLILLSRGEDLQSSDPATESTQNNQWTEVMFMATRELLRIPQAALAKPISIPTNLVSLFSRYVDRQKLNLLETKLQLVQGIR
modifications: YFP tag
- interaction with DDX6 [3]: impaired the interaction

B3: GST-EDC-3_230–566: GST-tagged fragment of C. elegans EDC-3 (residues 230–566) plus a C-terminal His6 tag (protein)
chain: RNKNDLADPIDFDLDSDFDFAENLKLFEKDENDDQYYETVEKFKCSQNFAHYENIIDDENRVTSWTNLKARSELVKTGTTPQTSEKNNFRVTAVSFEKSIIGDPIPAISLNEKKEFLNECRVSLGEAVYDTIVADRIFQWVSEVQNSYGDAHGTVVLLASSANSVRSIRRLLTHFDKRRYNCHLFGKYPGEIFDHVNVVTDVKMLPREVPIICILSPVVNDDVECWLRAQSNGASSHYVCIENVPSVLEPSRCHLLQFGCATNGLRHAERKVQTINRGGITFEHLCQGKMHEETSSILVDSAIADLGSPSNWFDNTSSKFISTAFSTTFLVRLSQSN
modifications: left off: GST, end not stated, kept | His6, C-terminal, state not stated
notes: GST-tagged fragment of C. elegans EDC-3 (residues 230–566) plus a C-terminal His6 tag
- interaction with CGH-1_248–420 [4]: can interact with CGH-1_248–420; also recorded: binds to CGH-1 RecA2 domain
- amount of CGH-1 4A bound compared with wild-type [5]: less amount
